Measured values: US20200332017A1
Where “and” joins values, the source holds several entries; their conditions need not be identical. Identical values can stand only once. Like-named read-outs stand apart in the source and are kept apart here.

How the values were obtained:
[1] = target: human CD40-Fc protein (amino acid residue 21-193 of SEQ ID NO: 67 linked to N-terminus of amino acid residue 99-330 of SEQ ID NO.: 24) (human); experiment: capture ELISA; antibody captured, biotin-labeled human CD40-Fc in solution
human CD40-Fc protein (amino acid residue 21-193 of SEQ ID NO: 67 linked to N-terminus of amino acid residue 99-330 of SEQ ID NO.: 24) (human), sequence (chain, as listed by the source): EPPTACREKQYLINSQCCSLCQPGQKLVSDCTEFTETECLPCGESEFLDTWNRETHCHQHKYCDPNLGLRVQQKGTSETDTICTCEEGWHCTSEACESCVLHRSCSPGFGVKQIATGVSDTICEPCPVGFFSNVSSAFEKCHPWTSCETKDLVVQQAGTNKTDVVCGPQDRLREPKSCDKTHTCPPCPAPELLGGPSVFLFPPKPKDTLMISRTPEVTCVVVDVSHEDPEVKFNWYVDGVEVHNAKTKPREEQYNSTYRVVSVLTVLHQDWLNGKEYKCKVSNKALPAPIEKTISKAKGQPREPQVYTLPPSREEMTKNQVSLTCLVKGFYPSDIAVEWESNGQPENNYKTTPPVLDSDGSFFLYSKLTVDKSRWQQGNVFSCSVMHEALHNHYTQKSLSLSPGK

[2] = target: human CD40-Fc protein (amino acid residue 21-193 of SEQ ID NO: 67 linked to N-terminus of amino acid residue 99-330 of SEQ ID NO.: 24) (human); experiment: as above; remark: listed apart in the source
[3] = target: human CD40-Fc protein (amino acid residue 21-193 of SEQ ID NO: 67 linked to N-terminus of amino acid residue 99-330 of SEQ ID NO.: 24) (human); experiment: capture ELISA, biotin human CD40-Fc; mAb at 0 ng/mL (blank)
[4] = target: full length human CD40 (uniprot # P25942-1) on the membrane of 293T-CD40 cells (human) (UniProt P25942); experiment: flow cytometry on 293T-CD40 cells
full length human CD40 (uniprot # P25942-1) on the membrane of 293T-CD40 cells (human), sequence (P25942 21-277 limits assumed): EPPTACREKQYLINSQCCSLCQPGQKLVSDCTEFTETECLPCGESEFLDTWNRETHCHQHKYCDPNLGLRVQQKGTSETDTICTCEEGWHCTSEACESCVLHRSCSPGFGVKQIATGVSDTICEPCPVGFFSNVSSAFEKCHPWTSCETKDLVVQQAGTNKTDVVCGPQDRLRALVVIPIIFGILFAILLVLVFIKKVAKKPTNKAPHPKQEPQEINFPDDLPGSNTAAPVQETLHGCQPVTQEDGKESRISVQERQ

[5] = target: human CD40-Fc protein (amino acid residue 21-193 of SEQ ID NO: 67 linked to N-terminus of amino acid residue 99-330 of SEQ ID NO.: 24) (human); experiment: capture ELISA, biotin human CD40-Fc; mAb at 3.2 ng/mL
[6] = target: human CD40-Fc protein (amino acid residue 21-193 of SEQ ID NO: 67 linked to N-terminus of amino acid residue 99-330 of SEQ ID NO.: 24) (human); experiment: capture ELISA; antibody captured, biotin-labeled human CD40-Fc in solution; remark: listed apart in the source
[7] = target: cynomolgus monkey CD40-his protein (Acro biosystems, Cat # CD0-052H6) (cynomolgus monkey) (UniProt G7PG38); experiment: SPR, Biacore; cynomolgus CD40-his
cynomolgus monkey CD40-his protein (Acro biosystems, Cat # CD0-052H6) (cynomolgus monkey), sequence (G7PG38 entry or part of it limits assumed): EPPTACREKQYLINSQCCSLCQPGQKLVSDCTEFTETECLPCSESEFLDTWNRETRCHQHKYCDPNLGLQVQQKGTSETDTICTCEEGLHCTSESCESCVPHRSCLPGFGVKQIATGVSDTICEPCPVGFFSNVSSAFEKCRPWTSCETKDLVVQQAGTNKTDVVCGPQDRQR

[8] = target: human CD40-Fc protein (amino acid residue 21-193 of SEQ ID NO: 67 linked to N-terminus of amino acid residue 99-330 of SEQ ID NO.: 24) (human); experiment: capture ELISA, biotin human CD40-Fc; mAb at 80 ng/mL
[9] = target: Human CD40-his protein (Acro biosystems, Cat # CD0-H5228) (human) (UniProt P25942); experiment: SPR, Biacore; antibody captured, human CD40-his flowed
Human CD40-his protein (Acro biosystems, Cat # CD0-H5228) (human), sequence (P25942 21-193 limits assumed): as the sequence (G7PG38 entry or part of it limits assumed) above, with S43G, R56H, Q70R, L89W, S95A, P101L, L106S, R142H, Q172L counted along it

[10] = target: human CD40-Fc protein (amino acid residue 21-193 of SEQ ID NO: 67 linked to N-terminus of amino acid residue 99-330 of SEQ ID NO.: 24) (human); experiment: capture ELISA (antibody captured on coated anti-IgG F(ab')2, biotin-labeled human CD40-Fc in solution, streptavidin-HRP, OD(450-630))
[11] = target: human CD40-Fc protein (amino acid residue 21-193 of SEQ ID NO: 67 linked to N-terminus of amino acid residue 99-330 of SEQ ID NO.: 24) (human); experiment: as above; remark: listed apart in the source
[12] = target: human CD40-Fc protein (amino acid residue 21-193 of SEQ ID NO: 67 linked to N-terminus of amino acid residue 99-330 of SEQ ID NO.: 24) (human); experiment: capture ELISA, biotin human CD40-Fc; mAb at 10000 ng/mL
[13] = target: Human CD40-his protein (Acro biosystems, Cat # CD0-H5228) (human) (UniProt P25942); experiment: SPR, Biacore T200; antibody captured, antigen flowed; 1:1 Langmuir fit
[14] = target: human CD40-Fc protein (amino acid residue 21-193 of SEQ ID NO: 67 linked to N-terminus of amino acid residue 99-330 of SEQ ID NO.: 24) (human); experiment: capture ELISA (antibody captured on coated goat anti-human IgG F(ab')2, biotin-labeled human CD40-Fc in solution, streptavidin-HRP, OD(450-630))
[15] = target: human CD40-Fc protein (amino acid residue 21-193 of SEQ ID NO: 67 linked to N-terminus of amino acid residue 99-330 of SEQ ID NO.: 24) (human); experiment: capture ELISA; antibody captured, biotin-labeled human CD40-Fc in solution; remark: listed apart in the source
[16] = target: human CD40-Fc protein (amino acid residue 21-193 of SEQ ID NO: 67 linked to N-terminus of amino acid residue 99-330 of SEQ ID NO.: 24) (human); experiment: capture ELISA, biotin human CD40-Fc; mAb at 16 ng/mL
[17] = target: human CD40-Fc protein (amino acid residue 21-193 of SEQ ID NO: 67 linked to N-terminus of amino acid residue 99-330 of SEQ ID NO.: 24) (human); experiment: capture ELISA, biotin human CD40-Fc; mAb at 0.64 ng/mL
[18] = target: human CD40-Fc protein (amino acid residue 21-193 of SEQ ID NO: 67 linked to N-terminus of amino acid residue 99-330 of SEQ ID NO.: 24) (human); experiment: capture ELISA, biotin human CD40-Fc; mAb at 2000 ng/mL
[19] = target: full length human CD40 (uniprot # P25942-1) on the membrane of 293T-CD40 cells (human) (UniProt P25942); experiment: flow cytometry on 293T-CD40 cells, PE-labeled secondary antibody, MFI
[20] = target: Human CD40-his protein (Acro biosystems, Cat # CD0-H5228) (human) (UniProt P25942); experiment: SPR, Biacore; human CD40-his
[21] = target: human CD40-Fc protein (amino acid residue 21-193 of SEQ ID NO: 67 linked to N-terminus of amino acid residue 99-330 of SEQ ID NO.: 24) (human); experiment: capture ELISA, biotin human CD40-Fc; mAb at 400 ng/mL
[22] = target: full length human CD40 (uniprot # P25942-1) on the membrane of 293T-CD40 cells (human) (UniProt P25942); experiment: cell-based or functional assay
[23] = target: full length human CD40 (uniprot # P25942-1) on the membrane of 293T-CD40 cells (human) (UniProt P25942); experiment: flow cytometry on 293T-CD40 cells; remark: listed apart in the source
[24] = target: full length human CD40 (uniprot # P25942-1) on the membrane of 293T-CD40 cells (human) (UniProt P25942); experiment: flow cytometry on 293T-CD40 cells, PE-labeled secondary antibody, MFI; remark: listed apart in the source
[25] = target: full length human CD40 (uniprot # P25942-1) on the membrane of 293T-CD40 cells (human) (UniProt P25942); experiment: as above; remark: listed apart in the source
[26] = target: human CD40-Fc protein (amino acid residue 21-193 of SEQ ID NO: 67 linked to N-terminus of amino acid residue 99-330 of SEQ ID NO.: 24) (human); experiment: ligand blocking ELISA: human CD40-Fc coated, antibody titrated, then biotin-labeled human CD40L-his (blocked ligand), streptavidin-HRP, OD(450-630)

BM2 (Selicrelumab, Abgenix) (antibody), sequence (VH): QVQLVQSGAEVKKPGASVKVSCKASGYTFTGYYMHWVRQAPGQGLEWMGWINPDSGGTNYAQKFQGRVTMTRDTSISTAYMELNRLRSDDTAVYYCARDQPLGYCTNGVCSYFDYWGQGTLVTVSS
BM2 (Selicrelumab, Abgenix) (antibody), sequence (VL): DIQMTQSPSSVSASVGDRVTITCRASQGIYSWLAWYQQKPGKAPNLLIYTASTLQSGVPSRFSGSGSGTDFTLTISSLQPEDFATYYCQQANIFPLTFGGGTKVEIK
BM1 (Dacetuzumab, Genentech Inc) (antibody), sequence (VH): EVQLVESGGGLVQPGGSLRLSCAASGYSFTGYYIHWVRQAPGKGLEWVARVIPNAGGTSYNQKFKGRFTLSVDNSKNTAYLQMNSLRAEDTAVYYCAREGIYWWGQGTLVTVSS
BM1 (Dacetuzumab, Genentech Inc) (antibody), sequence (VL): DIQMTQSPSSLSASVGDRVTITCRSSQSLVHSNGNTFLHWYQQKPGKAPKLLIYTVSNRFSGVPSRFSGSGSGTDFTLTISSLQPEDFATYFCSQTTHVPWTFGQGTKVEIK

Row | EC50 [1] | EC50 [2] | absorbance at 450 nm [3] | EC50 [4] | absorbance at 450 nm [5] | EC50 [6] | Kd [7] | absorbance at 450 nm [8] | Kd [9] | EC50 (read off the curve) [10] | absorbance at 450 nm [12] | Kd [13] | EC50 (read off the curve) [14] | EC50 [15] | absorbance at 450 nm [16] | absorbance at 450 nm [17] | absorbance at 450 nm [18] | EC50 (read off the curve) [19] | Kd [20] | absorbance at 450 nm [21] | Substance | other results
1 | 1.25 nM | 0.000886 µg/mL | 0.029 OD450 | 2.11 nM | 0.052 OD450 | 0.716 nM | 6.03 nM | 0.669 OD450 | 15.4 nM | 1 nM | 1.85 OD450 | 5.12 nM | 0.1 µg/mL | 0.72 nM | 0.178 OD450 | 0.028 OD450 | 1.63 OD450 | 0.3 µg/mL | 12.2 nM | 1.42 OD450 | BM2 (Selicrelumab, Abgenix) (antibody) | EC50 (read off the curve) [11]: 0.1 µg/mL; Cell-based Reporter assay (EC50, nM) [22]: 7.01 nM and 4.9 nM; cell based functional assay (EC50, nM) [22]: 2.89 nM; EC50 [23]: 2.01 nM and 8.58 nM
2 |  |  | 0.026 OD450 |  | 0.025 OD450 |  |  | 0.027 OD450 |  |  | 0.023 OD450 |  |  |  | 0.03 OD450 | 0.026 OD450 | 0.018 OD450 |  |  | 0.019 OD450 | hIgG (human immunoglobulin (pH4), for intravenous injection, Hualan Biological Engineering Inc.) (antibody) | 
3 |  |  | 0.125 OD450 |  | 0.099 OD450 |  |  | 0.087 OD450 |  |  | 0.044 OD450 |  |  |  | 0.109 OD450 | 0.096 OD450 | 0.047 OD450 |  |  | 0.05 OD450 | Mouse IgG-NC (mouse control Ab) (antibody) | 
4 | 0.434 nM | 0.000501 µg/mL | 0.028 OD450 | 1.3 nM | 0.077 OD450 | 0.335 nM | 5.85 nM | 1.02 OD450 | 26.3 nM | 0.4 nM | 1.99 OD450 | 11.1 nM | 0.05 µg/mL | 0.33 nM | 0.291 OD450 | 0.036 OD450 | 1.87 OD450 | 0.2 µg/mL | 14.1 nM | 1.83 OD450 | BM1 (Dacetuzumab, Genentech Inc) (antibody) | EC50 (read off the curve) [24]: 0.8 nM; EC50 (read off the curve) [25]: 1 nM; IC50 (read off the curve) [26]: 1 µg/mL; Cell-based Reporter assay (EC50, nM) [22]: 4.39 nM and 4.81 nM; cell based functional assay (EC50, nM) [22]: 4.16 nM; EC50 [23]: 0.975 nM and 0.886 nM
